Reference: IntAct's records for PubMed 25910212

Assays:
cap2_human CAP2 = cap2_human CAP2 (UniProt P40123)
cof2_human CFL2 = cof2_human CFL2 (UniProt Q9Y281)
tfcp2_human TFCP2 [1] = molecular target: tfcp2_human TFCP2 (UniProt Q12800)
tfcp2_human TFCP2 [2] = molecular target: tfcp2_human TFCP2 (UniProt Q12800); remark: listed apart in the source
fsd2_human FSD2 = molecular target: T1, fsd2_human FSD2 (UniProt A1L4K1)
T1 sequence: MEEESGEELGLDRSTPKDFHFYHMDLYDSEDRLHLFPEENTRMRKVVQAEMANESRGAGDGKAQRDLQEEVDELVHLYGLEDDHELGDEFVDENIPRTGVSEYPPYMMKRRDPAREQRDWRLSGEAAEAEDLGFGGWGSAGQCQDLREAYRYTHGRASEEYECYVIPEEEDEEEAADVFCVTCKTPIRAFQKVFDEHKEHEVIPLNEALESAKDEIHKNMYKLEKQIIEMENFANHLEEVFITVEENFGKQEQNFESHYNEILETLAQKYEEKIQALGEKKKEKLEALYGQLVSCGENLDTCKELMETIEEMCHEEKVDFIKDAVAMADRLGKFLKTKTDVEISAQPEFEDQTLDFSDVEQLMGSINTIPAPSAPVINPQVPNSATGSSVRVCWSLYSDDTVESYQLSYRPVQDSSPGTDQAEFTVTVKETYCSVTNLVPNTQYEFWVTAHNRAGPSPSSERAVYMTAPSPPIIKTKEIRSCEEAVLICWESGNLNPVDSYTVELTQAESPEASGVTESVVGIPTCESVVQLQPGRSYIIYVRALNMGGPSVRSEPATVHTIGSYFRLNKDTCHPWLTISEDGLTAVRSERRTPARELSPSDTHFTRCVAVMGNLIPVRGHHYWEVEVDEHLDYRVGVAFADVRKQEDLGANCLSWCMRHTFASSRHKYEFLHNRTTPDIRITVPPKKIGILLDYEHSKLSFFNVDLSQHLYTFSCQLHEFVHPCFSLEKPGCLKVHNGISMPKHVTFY

goga2_human GOLGA2 [3] = molecular target: goga2_human GOLGA2 (UniProt Q08379)
cep70_human CEP70 = molecular target: T2, cep70_human CEP70 (UniProt Q8NHQ1)
T2 sequence: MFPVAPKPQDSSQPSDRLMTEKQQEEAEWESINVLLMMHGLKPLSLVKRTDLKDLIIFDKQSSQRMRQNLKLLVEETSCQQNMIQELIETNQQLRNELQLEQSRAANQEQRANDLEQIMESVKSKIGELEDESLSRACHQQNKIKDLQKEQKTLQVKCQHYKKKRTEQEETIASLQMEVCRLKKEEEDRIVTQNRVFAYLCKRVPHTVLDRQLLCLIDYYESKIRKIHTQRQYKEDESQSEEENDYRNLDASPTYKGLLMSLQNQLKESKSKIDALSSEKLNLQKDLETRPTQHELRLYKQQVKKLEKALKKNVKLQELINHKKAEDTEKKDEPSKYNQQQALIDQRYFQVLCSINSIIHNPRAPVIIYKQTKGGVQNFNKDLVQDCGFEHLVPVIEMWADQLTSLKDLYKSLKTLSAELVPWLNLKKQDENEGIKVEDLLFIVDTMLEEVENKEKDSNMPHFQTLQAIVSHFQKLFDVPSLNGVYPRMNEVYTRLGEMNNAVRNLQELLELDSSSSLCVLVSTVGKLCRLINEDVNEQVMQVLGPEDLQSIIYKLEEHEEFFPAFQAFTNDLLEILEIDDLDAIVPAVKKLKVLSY

hem1_human ALAS1 = hem1_human ALAS1 (UniProt P13196)
kash5_human KASH5 = molecular target: T3, kash5_human KASH5 (UniProt Q8N6L0)
T3 sequence: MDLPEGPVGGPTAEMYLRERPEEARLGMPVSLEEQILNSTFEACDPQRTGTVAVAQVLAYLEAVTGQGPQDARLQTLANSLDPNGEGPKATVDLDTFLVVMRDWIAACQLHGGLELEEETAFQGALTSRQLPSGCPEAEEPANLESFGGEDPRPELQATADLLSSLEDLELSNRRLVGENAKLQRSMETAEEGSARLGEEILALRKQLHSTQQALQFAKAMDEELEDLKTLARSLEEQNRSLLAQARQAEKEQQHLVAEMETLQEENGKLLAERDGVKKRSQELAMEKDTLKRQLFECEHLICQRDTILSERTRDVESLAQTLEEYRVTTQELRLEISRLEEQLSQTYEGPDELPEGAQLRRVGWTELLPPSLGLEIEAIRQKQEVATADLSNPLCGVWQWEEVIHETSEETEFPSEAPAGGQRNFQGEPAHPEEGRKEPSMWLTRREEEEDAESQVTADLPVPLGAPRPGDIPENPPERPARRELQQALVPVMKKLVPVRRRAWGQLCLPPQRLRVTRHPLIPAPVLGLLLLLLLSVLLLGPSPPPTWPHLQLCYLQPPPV

tsg10_human TSGA10 = tsg10_human TSGA10 (UniProt Q9BZW7)
tmm79_human TMEM79 [4] = molecular target: T4, tmm79_human TMEM79 (UniProt Q9BSE2)
T4 sequence: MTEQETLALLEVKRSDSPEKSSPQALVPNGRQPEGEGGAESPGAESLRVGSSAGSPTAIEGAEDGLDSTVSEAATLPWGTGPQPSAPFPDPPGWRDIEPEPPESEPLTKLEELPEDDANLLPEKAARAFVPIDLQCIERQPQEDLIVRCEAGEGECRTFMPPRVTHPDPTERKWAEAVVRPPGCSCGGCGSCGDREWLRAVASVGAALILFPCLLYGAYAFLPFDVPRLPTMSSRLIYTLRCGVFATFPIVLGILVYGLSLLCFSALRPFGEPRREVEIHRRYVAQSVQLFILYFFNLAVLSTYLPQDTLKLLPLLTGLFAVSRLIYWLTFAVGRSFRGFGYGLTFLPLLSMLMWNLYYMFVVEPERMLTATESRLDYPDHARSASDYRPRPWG

tmm79_human TMEM79 [5] = molecular target: T4, tmm79_human TMEM79; remark: listed apart in the source
smim3_human SMIM3 [6] = molecular target: T5, smim3_human SMIM3 (UniProt Q9BZL3)
T5 sequence: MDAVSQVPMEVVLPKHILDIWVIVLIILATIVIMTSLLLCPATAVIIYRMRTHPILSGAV

SYNE4, Q8N205-2 = molecular target: T6, SYNE4, Q8N205-2
T6 sequence: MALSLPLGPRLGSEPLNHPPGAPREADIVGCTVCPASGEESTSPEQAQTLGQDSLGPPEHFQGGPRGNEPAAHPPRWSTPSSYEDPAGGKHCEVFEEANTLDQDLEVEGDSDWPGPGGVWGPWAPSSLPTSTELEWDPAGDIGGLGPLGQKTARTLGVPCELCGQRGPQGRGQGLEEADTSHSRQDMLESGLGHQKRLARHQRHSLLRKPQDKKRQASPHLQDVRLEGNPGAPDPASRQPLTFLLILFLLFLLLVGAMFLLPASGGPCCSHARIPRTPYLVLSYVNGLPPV

smim3_human SMIM3 [7] = molecular target: T5, smim3_human SMIM3; remark: listed apart in the source
tfpt_human TFPT = tfpt_human TFPT (UniProt P0C1Z6)
ifit3_human IFIT3 [8] = molecular target: ifit3_human IFIT3 (UniProt O14879)
ifit3_human IFIT3 [9] = molecular target: ifit3_human IFIT3 (UniProt O14879); remark: listed apart in the source
syce1_human SYCE1 = syce1_human SYCE1 (UniProt Q8N0S2)
kxdl1_human KXD1 = kxdl1_human KXD1 (UniProt Q9BQD3)
goga2_human GOLGA2 [10] = molecular target: goga2_human GOLGA2 (UniProt Q08379); remark: listed apart in the source
md1l1_human MAD1L1 = md1l1_human MAD1L1 (UniProt Q9Y6D9)
efhc2_human EFHC2 = molecular target: T7, efhc2_human EFHC2 (UniProt Q5JST6)
T7 sequence: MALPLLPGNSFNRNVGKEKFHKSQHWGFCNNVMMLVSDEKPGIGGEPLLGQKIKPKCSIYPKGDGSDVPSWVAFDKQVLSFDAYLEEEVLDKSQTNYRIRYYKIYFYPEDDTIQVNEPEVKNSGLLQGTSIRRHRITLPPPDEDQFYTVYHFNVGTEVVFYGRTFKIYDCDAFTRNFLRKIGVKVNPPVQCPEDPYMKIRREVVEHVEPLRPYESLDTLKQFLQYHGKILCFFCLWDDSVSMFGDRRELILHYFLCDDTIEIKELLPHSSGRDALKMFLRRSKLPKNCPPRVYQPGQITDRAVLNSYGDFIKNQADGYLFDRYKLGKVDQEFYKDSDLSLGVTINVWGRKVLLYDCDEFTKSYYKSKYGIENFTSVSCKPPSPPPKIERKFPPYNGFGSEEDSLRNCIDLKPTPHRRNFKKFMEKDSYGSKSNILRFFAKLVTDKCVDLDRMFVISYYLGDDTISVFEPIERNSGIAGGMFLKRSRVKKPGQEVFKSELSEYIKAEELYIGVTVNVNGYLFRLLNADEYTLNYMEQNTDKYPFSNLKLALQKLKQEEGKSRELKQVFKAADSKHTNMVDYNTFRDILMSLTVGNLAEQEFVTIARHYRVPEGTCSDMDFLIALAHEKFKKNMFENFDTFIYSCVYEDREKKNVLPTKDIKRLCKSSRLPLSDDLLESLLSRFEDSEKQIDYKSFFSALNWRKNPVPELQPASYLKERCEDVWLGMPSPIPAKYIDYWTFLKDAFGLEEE

Chain of goga2_human GOLGA2 (Q08379 whole entry): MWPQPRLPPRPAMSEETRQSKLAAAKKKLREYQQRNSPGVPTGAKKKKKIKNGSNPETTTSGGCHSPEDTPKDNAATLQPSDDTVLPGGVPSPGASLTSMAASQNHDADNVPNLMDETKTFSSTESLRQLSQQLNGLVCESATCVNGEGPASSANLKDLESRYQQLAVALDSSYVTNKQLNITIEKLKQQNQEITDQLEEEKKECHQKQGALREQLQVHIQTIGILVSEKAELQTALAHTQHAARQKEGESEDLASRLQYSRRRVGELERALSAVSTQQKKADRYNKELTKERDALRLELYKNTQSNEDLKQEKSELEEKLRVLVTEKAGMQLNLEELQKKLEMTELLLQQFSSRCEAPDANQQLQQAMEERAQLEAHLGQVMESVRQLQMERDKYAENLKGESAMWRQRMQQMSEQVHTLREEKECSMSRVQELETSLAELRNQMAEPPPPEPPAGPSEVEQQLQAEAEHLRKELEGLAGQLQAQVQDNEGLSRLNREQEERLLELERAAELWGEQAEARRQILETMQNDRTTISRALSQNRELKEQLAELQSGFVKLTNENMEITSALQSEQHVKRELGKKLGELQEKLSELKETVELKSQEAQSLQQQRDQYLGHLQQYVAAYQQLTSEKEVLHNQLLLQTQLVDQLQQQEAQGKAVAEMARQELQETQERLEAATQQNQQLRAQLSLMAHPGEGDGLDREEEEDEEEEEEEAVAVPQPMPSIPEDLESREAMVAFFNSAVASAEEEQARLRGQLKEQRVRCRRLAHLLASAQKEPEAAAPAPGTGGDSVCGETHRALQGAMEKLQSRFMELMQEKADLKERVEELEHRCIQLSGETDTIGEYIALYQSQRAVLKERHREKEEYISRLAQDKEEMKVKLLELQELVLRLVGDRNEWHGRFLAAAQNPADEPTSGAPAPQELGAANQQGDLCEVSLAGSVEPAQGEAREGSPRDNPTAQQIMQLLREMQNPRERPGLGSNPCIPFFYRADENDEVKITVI
Chain of Tropomyosin alpha-1 chain (Homo sapiens), P09493-10 E40K (P09493 other isoform, or with tags, fused parts or gaps E40K): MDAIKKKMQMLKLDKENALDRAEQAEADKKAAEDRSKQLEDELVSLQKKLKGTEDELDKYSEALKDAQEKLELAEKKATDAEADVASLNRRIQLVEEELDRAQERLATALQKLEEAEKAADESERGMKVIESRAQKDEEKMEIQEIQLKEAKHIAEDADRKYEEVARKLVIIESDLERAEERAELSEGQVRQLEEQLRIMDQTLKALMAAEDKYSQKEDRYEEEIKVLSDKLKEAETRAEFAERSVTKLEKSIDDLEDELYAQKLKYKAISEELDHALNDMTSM
Chain of tfcp2_human TFCP2 (Q12800 whole entry): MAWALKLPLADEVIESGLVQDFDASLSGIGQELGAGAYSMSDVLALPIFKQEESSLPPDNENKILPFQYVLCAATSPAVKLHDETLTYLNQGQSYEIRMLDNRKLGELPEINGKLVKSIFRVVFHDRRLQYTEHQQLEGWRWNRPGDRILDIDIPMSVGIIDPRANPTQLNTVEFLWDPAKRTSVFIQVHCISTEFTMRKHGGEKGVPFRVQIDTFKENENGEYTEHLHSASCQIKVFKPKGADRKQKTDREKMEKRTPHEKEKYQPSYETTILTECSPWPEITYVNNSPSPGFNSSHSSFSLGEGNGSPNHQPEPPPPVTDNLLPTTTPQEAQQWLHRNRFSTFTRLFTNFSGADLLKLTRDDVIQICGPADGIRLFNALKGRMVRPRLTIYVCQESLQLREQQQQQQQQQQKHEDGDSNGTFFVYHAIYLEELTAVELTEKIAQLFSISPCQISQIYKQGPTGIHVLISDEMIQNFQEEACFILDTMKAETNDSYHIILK
Chain of ifit3_human IFIT3 (O14879 whole entry): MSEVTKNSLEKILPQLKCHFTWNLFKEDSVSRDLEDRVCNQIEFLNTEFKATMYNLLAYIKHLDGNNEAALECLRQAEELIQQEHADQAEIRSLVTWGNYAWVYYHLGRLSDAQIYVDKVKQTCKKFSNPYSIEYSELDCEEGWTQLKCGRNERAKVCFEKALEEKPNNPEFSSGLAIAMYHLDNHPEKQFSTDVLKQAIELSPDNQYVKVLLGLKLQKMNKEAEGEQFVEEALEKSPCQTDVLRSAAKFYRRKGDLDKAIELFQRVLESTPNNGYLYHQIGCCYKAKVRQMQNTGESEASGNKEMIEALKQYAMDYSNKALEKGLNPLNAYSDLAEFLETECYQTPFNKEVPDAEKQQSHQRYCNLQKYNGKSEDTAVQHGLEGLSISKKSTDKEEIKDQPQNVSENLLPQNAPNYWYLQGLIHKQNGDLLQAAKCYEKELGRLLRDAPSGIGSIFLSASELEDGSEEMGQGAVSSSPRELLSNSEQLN
Chain of MTUS2, Q5JR59-3 (Q5JR59 other isoform, or with tags, fused parts or gaps): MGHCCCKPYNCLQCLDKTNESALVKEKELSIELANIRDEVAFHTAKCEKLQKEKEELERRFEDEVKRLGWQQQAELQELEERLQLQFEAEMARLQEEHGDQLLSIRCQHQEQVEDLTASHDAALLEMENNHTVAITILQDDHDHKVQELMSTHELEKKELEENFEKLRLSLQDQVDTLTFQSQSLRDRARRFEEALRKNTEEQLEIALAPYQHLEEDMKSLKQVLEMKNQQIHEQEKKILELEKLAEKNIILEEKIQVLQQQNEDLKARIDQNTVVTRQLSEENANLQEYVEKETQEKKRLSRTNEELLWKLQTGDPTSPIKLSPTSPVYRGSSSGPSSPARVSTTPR
Chain of hem1_human ALAS1 (P13196 whole entry): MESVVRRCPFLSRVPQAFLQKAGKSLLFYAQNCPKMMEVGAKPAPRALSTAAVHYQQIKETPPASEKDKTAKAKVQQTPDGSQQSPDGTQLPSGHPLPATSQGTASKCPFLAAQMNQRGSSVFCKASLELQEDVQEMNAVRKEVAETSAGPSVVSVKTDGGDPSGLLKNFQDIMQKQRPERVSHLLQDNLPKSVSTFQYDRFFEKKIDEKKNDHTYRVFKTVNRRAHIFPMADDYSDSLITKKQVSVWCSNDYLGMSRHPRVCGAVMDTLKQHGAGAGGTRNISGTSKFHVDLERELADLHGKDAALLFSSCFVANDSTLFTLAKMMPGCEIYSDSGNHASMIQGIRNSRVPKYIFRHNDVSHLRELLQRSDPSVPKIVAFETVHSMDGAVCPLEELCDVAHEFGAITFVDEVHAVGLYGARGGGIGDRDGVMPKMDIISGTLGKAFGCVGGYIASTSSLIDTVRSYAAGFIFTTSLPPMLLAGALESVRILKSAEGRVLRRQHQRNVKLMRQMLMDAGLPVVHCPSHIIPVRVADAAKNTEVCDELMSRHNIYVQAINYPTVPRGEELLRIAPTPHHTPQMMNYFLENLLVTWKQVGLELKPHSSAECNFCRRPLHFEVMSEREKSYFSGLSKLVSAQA
Chain of tsg10_human TSGA10 (Q9BZW7 whole entry): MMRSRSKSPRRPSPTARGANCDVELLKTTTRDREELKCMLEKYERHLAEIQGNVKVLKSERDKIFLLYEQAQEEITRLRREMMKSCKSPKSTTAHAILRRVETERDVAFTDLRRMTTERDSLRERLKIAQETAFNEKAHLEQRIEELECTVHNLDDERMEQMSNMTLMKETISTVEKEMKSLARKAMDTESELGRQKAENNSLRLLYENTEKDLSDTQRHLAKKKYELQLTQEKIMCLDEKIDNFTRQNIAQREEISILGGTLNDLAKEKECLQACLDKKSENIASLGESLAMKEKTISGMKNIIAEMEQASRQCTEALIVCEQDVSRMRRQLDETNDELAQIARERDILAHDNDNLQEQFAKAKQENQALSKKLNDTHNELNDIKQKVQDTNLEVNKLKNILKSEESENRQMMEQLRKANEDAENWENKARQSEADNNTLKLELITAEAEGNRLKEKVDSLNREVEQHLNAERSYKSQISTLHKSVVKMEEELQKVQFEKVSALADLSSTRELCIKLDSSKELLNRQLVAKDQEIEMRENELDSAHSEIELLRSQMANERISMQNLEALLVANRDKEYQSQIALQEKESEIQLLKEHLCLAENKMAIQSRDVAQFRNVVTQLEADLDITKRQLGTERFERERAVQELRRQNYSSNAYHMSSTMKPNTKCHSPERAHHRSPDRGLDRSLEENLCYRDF
Chain of Carbonic anhydrase 1 (Homo sapiens), P00915 R247H (P00915 whole entry R247H): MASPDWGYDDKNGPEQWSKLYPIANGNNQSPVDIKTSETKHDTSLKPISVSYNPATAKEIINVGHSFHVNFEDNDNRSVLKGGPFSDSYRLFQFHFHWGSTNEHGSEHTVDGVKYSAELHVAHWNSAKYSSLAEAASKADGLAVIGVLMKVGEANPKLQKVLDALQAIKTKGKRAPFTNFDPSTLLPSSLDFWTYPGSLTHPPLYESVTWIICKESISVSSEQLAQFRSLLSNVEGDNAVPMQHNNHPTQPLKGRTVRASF
Chain of tfpt_human TFPT (P0C1Z6 whole entry): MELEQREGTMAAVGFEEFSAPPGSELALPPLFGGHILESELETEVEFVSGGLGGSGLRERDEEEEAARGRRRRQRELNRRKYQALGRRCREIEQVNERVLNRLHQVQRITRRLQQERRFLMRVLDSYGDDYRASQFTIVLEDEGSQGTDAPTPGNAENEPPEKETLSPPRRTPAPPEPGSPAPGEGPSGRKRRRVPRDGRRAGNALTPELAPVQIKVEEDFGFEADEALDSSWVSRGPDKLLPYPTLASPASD
Chain of syce1_human SYCE1 (Q8N0S2 whole entry): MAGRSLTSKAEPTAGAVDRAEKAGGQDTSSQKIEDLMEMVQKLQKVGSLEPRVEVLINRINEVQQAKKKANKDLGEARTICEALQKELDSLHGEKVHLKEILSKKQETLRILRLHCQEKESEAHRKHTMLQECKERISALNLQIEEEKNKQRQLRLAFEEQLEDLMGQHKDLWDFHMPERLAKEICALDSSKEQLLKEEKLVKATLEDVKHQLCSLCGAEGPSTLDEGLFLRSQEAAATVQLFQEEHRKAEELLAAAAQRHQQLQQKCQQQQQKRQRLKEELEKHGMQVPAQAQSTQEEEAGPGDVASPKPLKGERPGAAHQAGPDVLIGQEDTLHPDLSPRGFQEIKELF

Substance: Actin, cytoplasmic 1 (Homo sapiens) (from UniProt P60709) E364K
- effect of a mutation on the interaction (cap2_human CAP2): disrupting interaction strength
- effect of a mutation on the interaction (cof2_human CFL2): disrupting interaction strength

Substance: Carbonic anhydrase 1 (Homo sapiens), P00915 H68R
- effect of a mutation on the interaction (tfcp2_human TFCP2 [1]): with no effect

Substance: Carbonic anhydrase 1 (Homo sapiens), P00915 R247H
- effect of a mutation on the interaction (tfcp2_human TFCP2 [1]): with no effect

Substance: Parafibromin (Homo sapiens) (from UniProt Q6P1J9) L64P
- effect of a mutation on the interaction (tfcp2_human TFCP2 [2]): disrupting interaction strength
- effect of a mutation on the interaction (fsd2_human FSD2): disrupting interaction strength
- effect of a mutation on the interaction (goga2_human GOLGA2 [3]): disrupting interaction strength
- effect of a mutation on the interaction (cep70_human CEP70): disrupting interaction strength
- effect of a mutation on the interaction (hem1_human ALAS1): disrupting interaction strength
- effect of a mutation on the interaction (MTUS2, Q5JR59-3): disrupting interaction strength
- effect of a mutation on the interaction (kash5_human KASH5): disrupting interaction strength
- effect of a mutation on the interaction (tsg10_human TSGA10): disrupting interaction strength

Substance: Parafibromin (Homo sapiens) (from UniProt Q6P1J9) R91P
- effect of a mutation on the interaction (tfcp2_human TFCP2 [2]): disrupting interaction strength
- effect of a mutation on the interaction (fsd2_human FSD2): disrupting interaction strength
- effect of a mutation on the interaction (goga2_human GOLGA2 [3]): disrupting interaction strength
- effect of a mutation on the interaction (cep70_human CEP70): disrupting interaction strength
- effect of a mutation on the interaction (hem1_human ALAS1): disrupting interaction strength
- effect of a mutation on the interaction (MTUS2, Q5JR59-3): disrupting interaction strength
- effect of a mutation on the interaction (kash5_human KASH5): disrupting interaction strength
- effect of a mutation on the interaction (tsg10_human TSGA10): disrupting interaction strength

Substance: Surfactant protein C (Homo sapiens) (from UniProt P11686) C189G
- effect of a mutation on the interaction (tmm79_human TMEM79 [4]): disrupting interaction strength
- effect of a mutation on the interaction (tmm79_human TMEM79 [5]): with no effect
- effect of a mutation on the interaction (smim3_human SMIM3 [6]): causing an interaction
- effect of a mutation on the interaction (SYNE4, Q8N205-2): with no effect
- effect of a mutation on the interaction (smim3_human SMIM3 [7]): with no effect

Substance: Surfactant protein C (Homo sapiens) (from UniProt P11686) Y104H
- effect of a mutation on the interaction (tmm79_human TMEM79 [4]): disrupting interaction strength
- effect of a mutation on the interaction (tmm79_human TMEM79 [5]): with no effect
- effect of a mutation on the interaction (smim3_human SMIM3 [6]): causing an interaction
- effect of a mutation on the interaction (SYNE4, Q8N205-2): with no effect
- effect of a mutation on the interaction (smim3_human SMIM3 [7]): with no effect

Substance: Tropomyosin alpha-1 chain (Homo sapiens), P09493-10 E40K
- effect of a mutation on the interaction (tfpt_human TFPT): with no effect
- effect of a mutation on the interaction (TNNT1, P13805-3): with no effect
- effect of a mutation on the interaction (ifit3_human IFIT3 [8]): with no effect
- effect of a mutation on the interaction (ifit3_human IFIT3 [9]): causing an interaction
- effect of a mutation on the interaction (syce1_human SYCE1): with no effect
- effect of a mutation on the interaction (CAGE1, Q8TC20-4): with no effect
- effect of a mutation on the interaction (kxdl1_human KXD1): with no effect
- effect of a mutation on the interaction (goga2_human GOLGA2 [10]): disrupting interaction strength
- effect of a mutation on the interaction (md1l1_human MAD1L1): with no effect

Substance: Voltage-dependent L-type calcium channel subunit beta-4 (Homo sapiens) (from UniProt O00305) C104F
- effect of a mutation on the interaction (efhc2_human EFHC2): with no effect

Substance: Voltage-dependent L-type calcium channel subunit beta-4 (Homo sapiens) (from UniProt O00305) R468Q
- effect of a mutation on the interaction (efhc2_human EFHC2): with no effect
